Data reported in patent US20100081638A1 (KOREA RESEARCH INSTITUTE OF BIOSCIENCE AND BIOTECHNOLOGY, published 2010).

Target: T1, focal adhesion kinase (FAK) (UniProt Q05397 2-1052)
T1 construct: Endogenous protein in lysates of SNU449 cell lines
Assay: physical association in SNU449 cell lysates with or without tiarellic acid (FIG. 10; method not described)

T1 sequence (Q05397 2-1052 limits assumed): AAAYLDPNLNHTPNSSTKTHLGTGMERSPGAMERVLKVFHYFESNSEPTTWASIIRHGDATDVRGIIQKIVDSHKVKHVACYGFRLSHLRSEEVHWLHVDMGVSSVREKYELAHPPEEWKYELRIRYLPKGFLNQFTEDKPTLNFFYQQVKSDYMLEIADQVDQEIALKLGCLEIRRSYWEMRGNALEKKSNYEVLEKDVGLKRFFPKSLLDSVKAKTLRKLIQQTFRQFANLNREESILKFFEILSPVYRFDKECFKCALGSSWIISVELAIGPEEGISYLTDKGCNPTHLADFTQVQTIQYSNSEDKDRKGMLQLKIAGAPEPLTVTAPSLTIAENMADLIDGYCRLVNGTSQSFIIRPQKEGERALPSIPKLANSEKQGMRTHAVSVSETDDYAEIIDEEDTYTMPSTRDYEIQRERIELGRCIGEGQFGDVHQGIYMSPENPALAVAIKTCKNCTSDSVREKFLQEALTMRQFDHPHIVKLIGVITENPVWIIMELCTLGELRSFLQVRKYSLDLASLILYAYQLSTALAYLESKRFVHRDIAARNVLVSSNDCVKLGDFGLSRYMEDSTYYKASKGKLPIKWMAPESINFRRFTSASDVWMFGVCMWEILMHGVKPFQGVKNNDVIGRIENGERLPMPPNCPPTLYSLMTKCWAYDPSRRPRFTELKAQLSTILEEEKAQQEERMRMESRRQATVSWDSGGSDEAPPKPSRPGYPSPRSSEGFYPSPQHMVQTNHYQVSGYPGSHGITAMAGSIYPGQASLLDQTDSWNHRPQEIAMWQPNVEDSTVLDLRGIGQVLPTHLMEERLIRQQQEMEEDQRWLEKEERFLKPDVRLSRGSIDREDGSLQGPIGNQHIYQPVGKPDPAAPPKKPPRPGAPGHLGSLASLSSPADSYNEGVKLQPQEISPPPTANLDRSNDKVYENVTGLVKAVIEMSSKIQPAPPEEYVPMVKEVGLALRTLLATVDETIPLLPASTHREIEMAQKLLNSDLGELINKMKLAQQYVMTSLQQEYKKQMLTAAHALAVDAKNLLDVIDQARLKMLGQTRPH

B1: p130Cas (other, UniProt P56945 1-870, looked up)
chain: MNHLNVLAKALYDNVAESPDELSFRKGDIMTVLEQDTQGLDGWWLCSLHGRQGIVPGNRLKILVGMYDKKPAGPGPGPPATPAQPQPGLHAPAPPASQYTPMLPNTYQPQPDSVYLVPTPSKAQQGLYQVPGPSPQFQSPPAKQTSTFSKQTPHHPFPSPATDLYQVPPGPGGPAQDIYQVPPSAGMGHDIYQVPPSMDTRSWEGTKPPAKVVVPTRVGQGYVYEAAQPEQDEYDIPRHLLAPGPQDIYDVPPVRGLLPSQYGQEVYDTPPMAVKGPNGRDPLLEVYDVPPSVEKGLPPSNHHAVYDVPPSVSKDVPDGPLLREETYDVPPAFAKAKPFDPARTPLVLAAPPPDSPPAEDVYDVPPPAPDLYDVPPGLRRPGPGTLYDVPRERVLPPEVADGGVVDSGVYAVPPPAEREAPAEGKRLSASSTGSTRSSQSASSLEVAGPGREPLELEVAVEALARLQQGVSATVAHLLDLAGSAGATGSWRSPSEPQEPLVQDLQAAVAAVQSAVHELLEFARSAVGNAAHTSDRALHAKLSRQLQKMEDVHQTLVAHGQALDAGRGGSGATLEDLDRLVACSRAVPEDAKQLASFLHGNASLLFRRTKATAPGPEGGGTLHPNPTDKTSSIQSRPLPSPPKFTSQDSPDGQYENSEGGWMEDYDYVHLQGKEEFEKTQKELLEKGSITRQGKSQLELQQLKQFERLEQEVSRPIDHDLANWTPAQPLAPGRTGGLGPSDRQLLLFYLEQCEANLTTLTNAVDAFFTAVATNQPPKIFVAHSKFVILSAHKLVFIGDTLSRQAKAADVRSQVTHYSNLLCDLLRGIVATTKAAALQYPSPSAAQDMVERVKELGHSTQQFRRVLGQLAAA
notes: Endogenous protein in lysates of SNU449 cell lines
binding result: binds
